How the values were obtained:
[1] = tested on: HLA-A2/pp65 complex (pp65 495-503 peptide); experiment: ELISA with phage clones and purified Fab Abs, specific complex; type: binding, human; conditions: soluble purified Fab
Experimental: ELISA with phage clones and purified Fab Abs—The binding specificities of individual phage clones and soluble Fab were determined by ELISA using biotinylated scMHC-peptide complexes. ELISA plates (Falcon) were coated overnight with BSA-biotin (1 μg/well). After having been washed, the plates were incubated (1 hour, RT) with streptavidin (1 μg/well), washed extensively, and further incubated (1 hour, RT) with 0.5 μg of MHC/peptide complexes. The plates were blocked for 30 minutes at RT with PBS/2% skim milk and subsequently were incubated for 1 hour at RT with phage clones (˜10^9 phages/well) or various concentrations of soluble purified Fab. […]
A large human Fab library containing 3.7×10^10 different Fab clones was used for the selection on biotinylatd HLA-A2/pp65 complexes (De Haard H J., et al., 1999). […] Specificity of the selected phage antibodies against the complex was analyzed by a differential ELISA assay in which binding was tested against specific (pp65 495-503 peptide; SEQ ID NO:3) and non specific (gp100 280-288 peptide; SEQ ID NO:4) biotinylated HLA-A2/peptide complexes. […]
To determine the correct folding of the bound complexes and their stability during the binding assays, the ability of the complexes to react with the conformation-specific mAb, w6/32, that recognizes HLA complexes only when folded correctly and when containing peptide was monitored.

[2] = molecular target: T1, pp65-loaded RMA-S-HHD cells (UniProt P06725+P61769); experiment: Flow cytometry on peptide-loaded RMA-S-HHD cells; type: cell-based, murine; conditions: Fab, control: EBV derived peptide
T1 construct: expressed in transfected cells; host or cells: murine TAP2-deficient RMA-S cells (RMA-S-HHD)
Experimental: Flow cytometry—The B cell line RMAS-HHD, which is transfected with a single-chain β2m-HLA-A2 gene, the EBV-transformed HLA-A2^+ JY cells, and the HLA-A2− B cell line APD-70 were used to determine the reactivity of the recombinant Fab Abs with cell surface-expressed HLA-A2/peptide complexes. Peptide pulsing was performed as indicated: 10^6 cells were washed twice with serum-free RPMI and incubated overnight at 26° C. or 37° C., respectively, in medium containing 1-50 μM of the peptide. The RMAS-HHD cells were subsequently incubated at 37° C. for 2-3 hours to stabilize cell surface expression of MHC-peptide complexes.
Cells were incubated for 60 minutes at 4° C. with recombinant Fab Abs (10 μg/ml) in 100 μl PBS. After one wash, the cells were incubated with 1 μg anti-human Fab (Jackson ImmunoResearch) for another 60 minutes at 4° C. After three washes, the cells were resuspended in ice-cold PBS. The cells were analyzed by a FACStar flow cytometer (BD Biosciences, San Jose, Calif.).
The pp65495-503 peptide and control peptides were loaded on RMA-S-HHD cells and the ability of the selected Fab Abs to bind to peptide-loaded cells was monitored by flow cytometry.

B1: F5: human recombinant TCR-like Fab clone specific for HLA-A2/pp65 495-503; heavy chain SEQ ID NO:20, light chain SEQ ID NO:22 (antibody)
heavy: QVQLQESGPGLVKPSETLSLTCTVSGGSISSSNYYWGWIRQPPGKGLEWIGAIYYSGSTYYNPSLKSRVAISVDTSKNQFSLKLSSVTAADTAVYYCARRIGVAGQWYFDLWGRGTLVTVSSASTKGPSVFPLAPSSKSTSGGTAALGCLVKDYFPEPVTVSWNSGALTSGVHTFPAVLQSSGLYSLSSVVTVPSSSLGTQTYICNVNHKPSNTKVDKKVEPKSC
light: LNFMLTQPHSVSGSPGKTVTISCTRSTGSITSNYVHWYQQRPGSSPTTVICEDNERPSGVPDRFSGSIDISSNSASLTISGLKTEDEADYYCQSYDDSNHISVFGTGTKVTVLGQPKANPCLISDFYPGAVTVAWKADGSPVKAGVETTKPSKQSNNKYAASSYLSLTPEQWKSHRSYSCQVTHEGSTVEKTVAPAECS
modifications: F5 Fab heavy chain polypeptide sequence; F5 Fab light chain polypeptide sequence
In the case of B1, the “binding to the specific HLA-A2/pp65 complex” value [1] is reported as “Specificity towards HLA-A2/pp65 complex” and the “reactivity with peptide-loaded RMA-S-HHD cells” value [2] is reported as “reacted only with pp65-loaded RMA-S-HHD cells”.

From patent US8361473B2, “Antibodies and their uses for diagnosis and treatment of cytomegalovirus infection and associated diseases” (priority 2007, dated 2013)
